Data on 4 molecules can be found in paper PMC12757481, “The dihydropyridine LA1011 modulates multiple Hsp90—co-chaperone interactions relevant to Alzheimer’s disease” (Cell Stress & Chaperones, 2025).

Where “and” joins values, the source holds several entries; their conditions need not be identical. Equal entries are not always repeated. Where two headings read alike, the source gives them in different places.

Series [1] deals with T1, Hsp90 (Saccharomyces cerevisiae, UniProt P02829).
T1 construct: made in house
Kind of series: Lactate-dehydrogenase and pyruvate-kinase-linked Hsp90 ATPase assay. Format: biochemical, yeast. To be noted: for effect of LA1011 on the co-chaperone directed regulation of Hsp90 ATPase activity: 2 μM Hsp90, 240 μM LA1011, co-chaperone 0.25 to 30 μM, normalized data compared with control lacking LA1011. How it is done: ATPase assays using 2 μM Hsp90 were conducted as previously described using the lactate-dehydrogenase and pyruvate-kinase-linked assay.[12] Briefly, 240 μM of LA1011 was used in assays as required. Co-chaperones were added to Hsp90 and Hsp90-LA1011 complex at a variety of concentrations ranging from 0.25 to 30 μM. Assays utilizing LA1011 were normalized by recalculating the activity for all data points so that the data points were converted to a percentage of the activity relative to the first data point, which lacked any addition of co-chaperone. The first data point was therefore 100% max Hsp90 activity. All assays were conducted at least in triplicate.
To assess the effect of LA1011 on the mechanistic action of co-chaperones, we used the lactate-dehydrogenase and pyruvate-kinase-linked Hsp90 ATPase assay. We first assessed the effect of each co-chaperone on Hsp90 ATPase activity and then compared its effect on a Hsp90-LA1011 complex.

Series [2] addresses T1, Hsp90. The experiment in a line: ITC, co-chaperone binding to Hsp90. Details: species or system yeast. A general note: Isothermal titration calorimetry measures the heat released or taken up as one component is titrated into another.
Method: (§1) The heat of interaction was measured on an ITC200 microcalorimeter (Microcal) under the same buffer conditions (20 mM Tris, pH 7.5, containing 5 mM NaCl), except for experiments using PP5, where we omitted EDTA and used 1 μM MnCl2. In experiments using nucleotide, we used 5 mM AMPPNP and 6 mM MgCl2. For experiments using Aha1 with AMPPNP the buffer contained 100 mM NaCl. Similarly, Sgt1 experiments also included 100 mM NaCl in the buffer. […] To assess co-chaperone binding to Hsp90 and Hsp90-LA1011 complex, we generally injected aliquots of co-chaperone at concentrations ranging from 200 to 400 μM into the microcell containing the Hsp90 or Hsp90-LA1011 complex at concentrations ranging from 20 to 30 μM of Hsp90 or Hsp90 in complex with 2 mM LA1011 at 30 °C. Heats of dilution were determined by diluting the injectant into the buffer. Data were fitted using a curve-fitting algorithm (Microcal Origin) either as a one-site binding event or as two independent binding sites as required.
For a further series, the target named is T2, Hsp90-LA1011 (Saccharomyces cerevisiae, UniProt P02829).
T2 construct: made in house
The experiment in a line: ITC, co-chaperone binding to Hsp90-LA1011 complex. Details: species or system yeast.

[3] abbreviates: ITC 30 °C, co-chaperone and Hsp90 without LA1011, one-site fit, read-out: Kd.
Setting [4] is: ITC 30 °C, Hsp90 in complex with 2 mM LA1011, one-site fit, read-out: Kd.

T2 sequence (P02829 whole entry): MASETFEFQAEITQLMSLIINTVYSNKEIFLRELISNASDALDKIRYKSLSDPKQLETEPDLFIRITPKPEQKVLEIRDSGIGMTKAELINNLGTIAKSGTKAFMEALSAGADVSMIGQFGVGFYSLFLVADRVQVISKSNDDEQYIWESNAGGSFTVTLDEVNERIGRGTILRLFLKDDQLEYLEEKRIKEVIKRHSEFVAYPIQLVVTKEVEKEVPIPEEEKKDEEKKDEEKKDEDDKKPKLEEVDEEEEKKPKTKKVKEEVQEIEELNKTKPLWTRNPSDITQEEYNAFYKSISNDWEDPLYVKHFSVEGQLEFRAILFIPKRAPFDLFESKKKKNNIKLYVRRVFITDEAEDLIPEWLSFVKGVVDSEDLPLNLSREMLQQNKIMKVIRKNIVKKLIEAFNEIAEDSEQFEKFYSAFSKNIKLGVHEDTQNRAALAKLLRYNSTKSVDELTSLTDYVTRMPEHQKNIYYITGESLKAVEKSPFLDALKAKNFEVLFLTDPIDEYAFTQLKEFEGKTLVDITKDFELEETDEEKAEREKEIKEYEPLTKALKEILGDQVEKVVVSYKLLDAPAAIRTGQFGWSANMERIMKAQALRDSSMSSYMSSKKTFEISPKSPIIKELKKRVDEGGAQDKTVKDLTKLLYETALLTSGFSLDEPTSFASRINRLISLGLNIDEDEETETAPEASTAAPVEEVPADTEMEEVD
T1 sequence (P02829 whole entry): as above
Method for Hsp90-LA1011: as §1

B1: TPR domain of PP5: PP5-TPR domain (amino acid residues 1-177) (protein, UniProt P53041 1-177, looked up, fragment)
chain: MAMAEGERTECAEPPRDEPPADGALKRAEELKTQANDYFKAKDYENAIKFYSQAIELNPSNAIYYGNRSLAYLRTECYGYALGDATRAIELDKKYIKGYYRRAASNMALGKFRAALRDYETVVKVKPHDKDAKMKYQECNKIVKQKAFERAIAGDEHKRSVVDSLDIESMTIEDEYS
modifications: TPR domain
As to B1, the “effect of LA1011 on the co-chaperone directed regulation of Hsp90 ATPase activity” value (“effect of LA1011” below) with Hsp90 [1] was “small but significant effect”.

B2: Sgt1: yeast Sgt1 (amino acid residues 1-280), Hsp90 co-chaperone (protein, UniProt Q08446 1-280, looked up, fragment)
chain: MPVEKDLKTAYKALYDEKEPLKALHLYDEILKGSPTNLTALIFKAACLEKLYFGFSDWHSDATMENAKELLDKALMTAEGRGDRSKIGLVNFRYFVHFFNIKDYELAQSYFKKAKNLGYVDDTLPLWEDRLETKLNKKNKKQKDSTNKHTIKPVESIENRGDNNSSHSPISPLKIETAPQESPKFKIDWYQSSTSVTISLFTVNLPESKEQVNIYISPNDRRTLSISYQVPKSGSEFQYNAKLSHEVDPKAVSLKIFPKKLEITLSKIDSTQWKKLEEDI
For the molecule B2, the Kd in the series with Hsp90 [2] (setting [3]) was 16200 nM; with Hsp90-LA1011 (setting [4]) it was 13600 nM. For the same molecule, in the series with Hsp90 [1], the “effect of LA1011” value is recorded as “unaffected by the presence of LA1011”.

B3: FKBP52: Hsp90 co-chaperone, TPR domain-containing protein (protein, UniProt Q02790 1-459, looked up)
Peptidyl-prolyl cis-trans …: MTAEEMKATESGAQSAPLPMEGVDISPKQDEGVLKVIKREGTGTEMPMIGDRVFVHYTGWLLDGTKFDSSLDRKDKFSFDLGKGEVIKAWDIAIATMKVGEVCHITCKPEYAYGSAGSPPKIPPNATLVFEVELFEFKGEDLTEEEDGGIIRRIQTRGEGYAKPNEGAIVEVALEGYYKDKLFDQRELRFEIGEGENLDLPYGLERAIQRMEKGEHSIVYLKPSYAFGSVGKEKFQIPPNAELKYELHLKSFEKAKESWEMNSEEKLEQSTIVKERGTVYFKEGKYKQALLQYKKIVSWLEYESSFSNEEAQKAQALRLASHLNLAMCHLKLQAFSAAIESCNKALELDSNNEKGLFRRGEAHLAVNDFELARADFQKVLQLYPNNKAAKTQLAVCQQRIRRQLAREKKLYANMFERLAEEENKAKAEASSGDHPTDTEMKEEQKSNTAGSQSQVETEA
Regarding B3, the Kd is approximately 620 nM with Hsp90 [2] (ITC, Hsp90 without LA1011, two-site fit, value listed first in Table 2 and figures, read-out: Kd (two-site fit, first value listed)); ~620 nM and 620 nM in the series with Hsp90 [2] (ITC, Hsp90 without LA1011, two-site fit, value listed second in Table 2 and figures, read-out: Kd (two-site fit, second value listed)); 2800 nM with Hsp90-LA1011 (ITC, Hsp90 with 2 mM LA1011, two-site fit, value listed first in Table 2 and figures, read-out: Kd (two-site fit, first value listed)); ~200 nM and 200 nM with Hsp90-LA1011 (ITC, Hsp90 with 2 mM LA1011, two-site fit, value listed second in Table 2 and figures, read-out: Kd (two-site fit, second value listed)).

B4: CHIP: mouse CHIP, Hsp90-dependent E3 ubiquitin ligase co-chaperone, dimeric (protein, UniProt Q9WUD1 1-304, looked up)
E3 ubiquitin-protein ligase …: MKGKEEKEGGARLGTGGGGSPDKSPSAQELKEQGNRLFVGRKYPEAAACYGRAITRNPLVAVYYTNRALCYLKMQQPEQALADCRRALELDGQSVKAHFFLGQCQLEMESYDEAIANLQRAYSLAKEQRLNFGDDIPSALRIAKKKRWNSIEERRIHQESELHSYLTRLIAAERERELEECQRNHEGHEDDGHIRAQQACIEAKHDKYMADMDELFSQVDEKRKKRDIPDYLCGKISFELMREPCITPSGITYDRKDIEEHLQRVGHFDPVTRSPLTQEQLIPNLAMKEVIDAFISENGWVEDY
For B4, the dissociation constant Kd worked out at 80 nM with Hsp90 [2] (setting [3]) and 1440 nM with Hsp90-LA1011 (setting [4]). Besides, the “effect on Hsp90 ATPase activity” value with Hsp90 [1] (2 μM Hsp90) is listed as “inhibitor of the ATPase activity of Hsp90”. Besides, the “effect of LA1011” value with Hsp90 [1] was “LA1011 affects CHIP’s ability to inhibit Hsp90 ATPase activity”.

One may read the Kd as a measure of binding affinity in units of concentration.
